Usually Kd stands for a measure of binding affinity in units of concentration.

Assay [1] has as its target T1, cynomolgus FcRH5 on stably transfected SVT2 cells (cynomologous monkey).
T1 construct: also called cyno FcRH5; cynoFcRH5
T1 chain: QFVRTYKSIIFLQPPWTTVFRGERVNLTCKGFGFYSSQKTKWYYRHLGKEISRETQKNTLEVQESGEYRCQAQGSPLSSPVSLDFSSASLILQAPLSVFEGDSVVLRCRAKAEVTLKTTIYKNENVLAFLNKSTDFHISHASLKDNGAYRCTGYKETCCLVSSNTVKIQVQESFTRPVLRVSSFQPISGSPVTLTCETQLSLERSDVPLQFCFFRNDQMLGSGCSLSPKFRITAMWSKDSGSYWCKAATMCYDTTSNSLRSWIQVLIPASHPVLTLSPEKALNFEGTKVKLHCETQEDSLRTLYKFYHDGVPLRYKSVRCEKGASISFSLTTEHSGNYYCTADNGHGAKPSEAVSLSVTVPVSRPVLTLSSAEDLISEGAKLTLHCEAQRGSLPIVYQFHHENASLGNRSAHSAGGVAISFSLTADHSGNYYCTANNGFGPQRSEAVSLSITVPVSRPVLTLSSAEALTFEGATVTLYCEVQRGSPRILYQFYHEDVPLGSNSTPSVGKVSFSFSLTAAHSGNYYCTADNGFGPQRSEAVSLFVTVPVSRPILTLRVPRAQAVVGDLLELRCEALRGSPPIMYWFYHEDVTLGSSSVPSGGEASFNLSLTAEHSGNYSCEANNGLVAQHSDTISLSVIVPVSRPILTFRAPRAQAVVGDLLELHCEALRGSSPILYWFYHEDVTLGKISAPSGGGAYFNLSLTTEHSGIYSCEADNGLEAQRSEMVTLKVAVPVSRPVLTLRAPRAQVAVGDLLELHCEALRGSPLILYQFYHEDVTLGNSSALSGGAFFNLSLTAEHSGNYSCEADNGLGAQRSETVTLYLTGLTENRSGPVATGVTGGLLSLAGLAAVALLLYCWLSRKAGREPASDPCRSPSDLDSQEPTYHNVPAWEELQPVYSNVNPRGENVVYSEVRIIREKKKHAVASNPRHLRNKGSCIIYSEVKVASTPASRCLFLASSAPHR
The assay can be described thus: Scatchard analysis: 0.5 nM 125I-labeled antibody competed with the unlabeled antibody (50 to 0.02 nM) on SVT2.cyFcRH5 cells, 4 h at 4 C; St. Error 0.064. The method, then: To further determine binding of the FcRH5 murine antibodies and IgG clones, binding of iodinated IgG variants to OPM2 cells expressing human FcRH5 and SVT2 cells expressing cynomologous FcRH5, Scatchard analysis was performed (Table 9A).
For Scatchard analysis, 0.5 nM I¹²⁵ labeled murine or IgG clone anti-FcRH5 was competed against unlabeled murine or IgG clone anti-FcRH5, respectively, ranging from 50 to 0.02 nM (12 step 1:2 serial dilution) in the presence of a transfected OPM2 line stably expressing human-FcRH5 and a transfected SVT2 line stably expressing cynomologous-FcRH5. After a four hour incubation at 4° C., cells were washed and cell pellet counts were read by a gamma counter (1470 WIZARD Automatic Gamma Counter; Perkin Elmer, Walthem, Mass.). All points were done in triplicate and counted for 10 minutes. The average CPM was used for Kd calculation using the New Ligand (Genentech, South San Francisco, Calif.) program.

Assay [2] has as its target T2, human FcRH5 (FcRH5c/IRTA2c, PRO52387), soluble recombinant protein (human, UniProt Q96RD9 16-851).
T2 construct: also called Hu antigen; FcRH5 protein
T2 chain: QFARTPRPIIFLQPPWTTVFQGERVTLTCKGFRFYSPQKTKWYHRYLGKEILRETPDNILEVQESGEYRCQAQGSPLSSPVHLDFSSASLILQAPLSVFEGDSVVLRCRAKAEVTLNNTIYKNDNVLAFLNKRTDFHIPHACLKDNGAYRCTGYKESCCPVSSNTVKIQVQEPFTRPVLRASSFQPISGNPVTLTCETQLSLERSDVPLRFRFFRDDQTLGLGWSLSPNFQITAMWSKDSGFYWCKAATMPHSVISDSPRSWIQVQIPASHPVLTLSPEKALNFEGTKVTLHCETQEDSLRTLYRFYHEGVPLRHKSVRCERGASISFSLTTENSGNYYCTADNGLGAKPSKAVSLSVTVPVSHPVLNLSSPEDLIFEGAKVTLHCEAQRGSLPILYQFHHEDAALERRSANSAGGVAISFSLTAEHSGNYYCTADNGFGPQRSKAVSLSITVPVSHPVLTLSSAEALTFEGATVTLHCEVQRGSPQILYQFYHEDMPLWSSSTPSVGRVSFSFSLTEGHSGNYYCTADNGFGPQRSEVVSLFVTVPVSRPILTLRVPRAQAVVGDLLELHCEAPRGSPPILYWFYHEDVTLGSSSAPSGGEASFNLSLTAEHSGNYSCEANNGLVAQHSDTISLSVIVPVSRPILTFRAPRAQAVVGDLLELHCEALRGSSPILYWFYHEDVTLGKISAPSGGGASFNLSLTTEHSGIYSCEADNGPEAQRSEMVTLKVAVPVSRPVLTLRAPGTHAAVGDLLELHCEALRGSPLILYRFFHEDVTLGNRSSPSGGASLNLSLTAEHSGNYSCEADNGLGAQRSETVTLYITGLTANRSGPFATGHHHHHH
The assay can be described thus: SPR (Biacore 2000): IgG captured on anti-murine IgG chip, FcRH injected, 25 C, 1:1 Langmuir model.

Assay [3] concerns the target T3, gD tagged human FcRH4 on SVT2 cells (human, UniProt Q96PJ5 20-515).
T3 construct: whole, on cells; also called huFcRH4; IRTA1; not shown: gD tag; the construct for this FcRH is not described
T3 sequence (looked up): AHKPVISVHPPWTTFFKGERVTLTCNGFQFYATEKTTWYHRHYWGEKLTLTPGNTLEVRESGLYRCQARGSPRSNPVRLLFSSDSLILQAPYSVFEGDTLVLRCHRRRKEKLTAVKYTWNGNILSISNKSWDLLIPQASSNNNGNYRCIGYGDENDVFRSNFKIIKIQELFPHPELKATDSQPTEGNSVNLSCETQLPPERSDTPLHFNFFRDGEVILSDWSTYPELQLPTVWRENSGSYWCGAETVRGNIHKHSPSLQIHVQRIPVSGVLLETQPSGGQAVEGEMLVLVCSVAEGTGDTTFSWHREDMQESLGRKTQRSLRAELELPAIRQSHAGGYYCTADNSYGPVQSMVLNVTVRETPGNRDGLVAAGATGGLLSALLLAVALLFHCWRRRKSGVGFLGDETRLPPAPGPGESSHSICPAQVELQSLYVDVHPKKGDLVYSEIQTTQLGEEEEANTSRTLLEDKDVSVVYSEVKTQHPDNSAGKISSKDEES
Briefly: FACS, SVT2.MSCV.gD.FcRH4 cells, PE secondary antibody.

B1: murine monoclonal antibody anti-FcRH5-13G9 (antibody, V domains shown)
VH: EVQLVQSGPELKKPGETVKISCKASGYTFTNYGMNWVKQAPGKGLKWMGWVNTYTGEPTYTDDFKGRFAFSVETSASTVFLQINNLKNEDTATYFCARRSIPYYYAMDYWGQGTSLT
VL: DIVMTQSQKIMSTSVGDRVNVTCKASQNVGSNVAWYHQKPGQSPKALIYSASYRYSGVPDRFTGSGSGTDFTLTISNVQSEDLAEYFCQQYKTWTFGGGTKLEIKR
notes: Whole murine IgG from hybridoma; also called 13G9.1.1; mu13G9
For the molecule B1, the values for the dissociation constant (Kd) in assay [1] and in assay [2] were 0.54 nM and 19 nM, respectively. In addition, the binding result in assay [3] is reported as “no binding (tested: 1.0 ug per about 10^6 cells (p-1120))”.

The values above are taken from patent US20130089497A1 (Genentech, published 2013).
